For the assay, the target named is T1, human CNOT7 (human, UniProt Q9UIV1 11-262).
T1 construct: CNOT7 (Caf1), human; A second preparation (N-terminal His6, pET-28b, Rosetta2) was made for the SPR screening; also called Caf1; CAF1; source: E. coli BL21 (DE3), purified following the protocol for wild-type Tob
Description: ITC; CNOT7 at 0.05 mM in the cell, TobN138 (wild type or K63A) at 0.45 mM titrated in; room temperature; 20 mM HEPES pH 7.5, 150 mM NaCl, 5% DMSO; one-site model. To be noted: both partners purified. (In general: In ITC the heat of successive injections is recorded.)

Where a chain is given by its changes, count along the chain named. Numbers in names are those of the source.

A word on the stoichiometry N: it is the number of molecules, sites or subunits per partner or assembly.

T1 sequence (Q9UIV1 11-262): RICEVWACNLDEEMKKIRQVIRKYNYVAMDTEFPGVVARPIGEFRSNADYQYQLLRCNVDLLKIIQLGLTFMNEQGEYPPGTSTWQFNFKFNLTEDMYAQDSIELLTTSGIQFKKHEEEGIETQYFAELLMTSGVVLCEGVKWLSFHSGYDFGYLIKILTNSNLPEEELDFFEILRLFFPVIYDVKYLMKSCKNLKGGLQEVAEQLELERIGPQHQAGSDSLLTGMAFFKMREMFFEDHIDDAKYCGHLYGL

B1: human Tob residues 1-138 (TobN138), wild type (domain or fragment, UniProt P50616 1-138, looked up)
chain: MQLEIQVALNFIISYLYNKLPRRRVNIFGEELERLLKKKYEGHWYPEKPYKGSGFRCIHIGEKVDPVIEQASKESGLDIDDVRGNLPQDLSVWIDPFEVSYQIGEKGPVKVLYVDDNNENGCELDKEIKNSFNPEAQV
notes: Tob (Tob1), human, residues 1-138, containing the Box A and Box B motifs; Cloned into pGEX-6P-1 via BamHI and XhoI; A second preparation (His6-SUMO, pET-28b, Rosetta2) was made for the SPR screening; also called Tob1; TobN138 WT
In the case of B1, the “stoichiometry N” value turned out to be 0.611 ± 0.00797 sites.

B2: TobN138 K63A mutant (domain or fragment, human, UniProt P50616 1-138, looked up)
chain: B1 chain with K63A
notes: Tob (Tob1), human, residues 1-138, with the point mutation K63A; Made by PCR mutagenesis with the human TobN138 expression plasmid as template; source: E. coli BL21 (DE3), purified following the protocol for wild-type Tob
For the molecule B2, the “stoichiometry N” value turned out to be 0.737 ± 0.00585 sites.
